Numbered stars: 1 amine (or outer) side, 2 acyl side, 3 side chain; on linkers, the order of the positions; unused ones are H or OH. Square brackets hold non-standard residues; d marks the D form. Side chains are listed from the residue outwards. Ends that are not written are not given here. γGlu = O=C(O)[C@H](CCC(=O)[*:2])N[*:1]; x53 = not defined here; Aib = CC(C)(N)C(=O)O
What follows are binders tested against human GLP-1 receptor (human, UniProt P43220 24-463) (assay: cell-based or functional assay).

| Binder | EC50 hGLP-1R (cAMP) [pM] |
| --- | --- |
| HXQGTFTSDLSKQKDSRRAQDFIEWLKNGGPSSGAPPPS (dSer at 2; K(γE-x53) at 14; C-terminal NH(benzyl)) [SEQ ID NO: 99] | 15.9 |
| HXQGTFTSDLSKQKDSRRAQDFIEWLKNGGPSSGAPPPS (dSer at 2; K(γE-x53) at 14; C-terminal NH(tert.butyl)) [SEQ ID NO: 100] | 13.5 |
| HXQGTFTSDLSKQKDSRRAQDFIEWLKNGGPSSGAPPPS (dSer at 2; K(γE-x53) at 14; C-terminal N(diethyl)) [SEQ ID NO: 101] | 9.8 |
| HXQGTFTSDLSKQKDSRRAQDFIEWLKNGGPSSGAPPPS (dSer at 2; K(γE-x53) at 14; C-terminal N(morpholin)) [SEQ ID NO: 102] | 7.2 |
| HXQGTFTSDLSKQKDSRRAQDFIEWLKNGGPSSGAPPPS (dSer at 2; K(γE-x53) at 14; C-terminal NH(CH2-CF3)) [SEQ ID NO: 103] | 10.1 |
| HXQGTFTSDLSKQKDSRRAQDFIEWLKNGGPSSGAPPPS (dSer at 2; K(γE-x53) at 14; C-terminal NH[(CH2-CH2-O)4-CH2-CH2-COOH]) [SEQ ID NO: 104] | 6.5 |
| HXQGTFTSDLSKQKDSRRAQDFIEWLKNGGPSSGAPPPS (dSer at 2; K(γE-x53) at 14; C-terminal NH[(CH2-CH2-O)24-CH2-CH2-COOH]) [SEQ ID NO: 105] | 7.9 |
| HXQGTFTSDLSKQKDSRRAQDFIEWLKNGGPSSGAPPPS (dSer at 2; K(γE-x53) at 14; C-terminal NH[(CH2)15-CH3]) [SEQ ID NO: 106] | 210 |
| HXQGTFTSDLSKQKESXAAXLFIEWLKAGGPSSGAPPPS (dSer at 2; K(γE-x53) at 14; Aib at 17; Aib at 20; C-terminal NH2) [SEQ ID NO: 12] | 4.6 |
| HXQGTFTSDLSKQKDSRRAQDFIEWLKNGGPSSGAPPPS (dSer at 2; K(γE-x53) at 14; C-terminal NH[(CH2)12-OH]) [SEQ ID NO: 107] | 188 |
| HXQGTFTSDLSKQKDSRRAQDFIEWLKNGGPSSGAPPPS (dSer at 2; K(γE-x53) at 14; C-terminal NH[(CH2)14-CH3]) [SEQ ID NO: 108] | 197 |
| HXQGTFTSDLSKQKDSRRAQDFIEWLKNGGPSSGAPPPS (dSer at 2; K(γE-x53) at 14; C-terminal NH[(CH2)17-CH3]) [SEQ ID NO: 109] | 430 |
| HXQGTFTSDLSKQKDSRRAQDFIEWLKNGGPSSGAPPPS (dSer at 2; K(γE-x53) at 14; C-terminal NH[(CH2)13-CH3]) [SEQ ID NO: 110] | 213 |
| HXQGTFTSDLSKQKESRRAQDFIEWLKNGGPSSGAPPPSK (dSer at 2; K(γE-x53) at 14; C-terminal NH2) [SEQ ID NO: 111] | 8.1 |
| HXQGTFTSDLSKQKESRRAQDFIEWLKNGGPSSGAPPPSK (dSer at 2; K(x53) at 14; C-terminal NH2) [SEQ ID NO: 112] | 33.6 |
| HXQGTFTSDLSKQKESRRAQDFIEWLKNGGPSSGAPPPK (dSer at 2; K(γE-x53) at 14; C-terminal NH2) [SEQ ID NO: 113] | 11.4 |
| HXQGTFTSDLSKQKESRRAQDFIEWLKNGGPSSGAPPPK (dSer at 2; K(x53) at 14; C-terminal NH2) [SEQ ID NO: 114] | 62.3 |
| HXQGTFTSDLSKQKESRRAQDFIEWLKNGGPSSGAPPPS (dSer at 2; K(γE-x53) at 14; C-terminal NH2) [SEQ ID NO: 116] | 6 |
| H[Aib]QGTFTSDLSKQK([γGlu-x53])ES[Aib]AAQDFIEWLKAGGPSSGAPPPS-NH2 (reading uncertain) [SEQ ID NO: 13] | 3.1 |
| H[Aib]QGTFTSDLSKQK([γGlu-x53])ESRRAQDFIEWLKNGGPSSGAPPPS-NH2 (reading uncertain) [SEQ ID NO: 117] | 3.8 |
| HXQGTFTSDLSKQKDSRRAXDFIEWLKNGGPSSGAPPPS (dSer at 2; K(γE-x53) at 14; Aib at 20; C-terminal NH2) [SEQ ID NO: 118] | 15.3 |
| HXQGTFTSDLSKQKESRRAXDFIEWLKNGGPSSGAPPPS (dSer at 2; K(x53) at 14; Aib at 20; C-terminal NH2) [SEQ ID NO: 119] | 30.8 |
| HXQGTFTSDLSKQKESRAAXLFIEWLKNGGPSSGAPPPS (dSer at 2; K(γE-x53) at 14; Aib at 20; C-terminal NH2) [SEQ ID NO: 121] | 6.1 |

These binders were tested against human glucagon receptor (human, UniProt P47871 26-477) (assay: cell-based or functional assay).
Sequence of human glucagon receptor (P47871 26-477): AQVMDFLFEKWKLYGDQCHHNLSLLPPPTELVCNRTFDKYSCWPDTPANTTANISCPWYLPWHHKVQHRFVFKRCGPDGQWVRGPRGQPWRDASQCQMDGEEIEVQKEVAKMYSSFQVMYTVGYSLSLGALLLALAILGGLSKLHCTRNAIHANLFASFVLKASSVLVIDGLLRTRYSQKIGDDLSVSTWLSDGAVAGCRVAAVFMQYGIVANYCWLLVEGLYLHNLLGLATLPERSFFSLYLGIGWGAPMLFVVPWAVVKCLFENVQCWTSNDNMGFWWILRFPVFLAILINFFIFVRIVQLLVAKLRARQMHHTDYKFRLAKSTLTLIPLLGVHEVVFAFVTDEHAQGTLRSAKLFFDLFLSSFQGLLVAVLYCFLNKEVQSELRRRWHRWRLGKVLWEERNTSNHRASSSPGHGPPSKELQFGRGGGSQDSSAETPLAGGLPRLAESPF

| Binder | EC50 hGlucagon-R (cAMP) [pM] |
| --- | --- |
| HXQGTFTSDLSKQKDSRRAQDFIEWLKNGGPSSGAPPPS (dSer at 2; K(γE-x53) at 14; C-terminal NH(benzyl)) [SEQ ID NO: 99] | 2.6 |
| HXQGTFTSDLSKQKDSRRAQDFIEWLKNGGPSSGAPPPS (dSer at 2; K(γE-x53) at 14; C-terminal NH(tert.butyl)) [SEQ ID NO: 100] | 2 |
| HXQGTFTSDLSKQKDSRRAQDFIEWLKNGGPSSGAPPPS (dSer at 2; K(γE-x53) at 14; C-terminal N(diethyl)) [SEQ ID NO: 101] | 1.7 |
| HXQGTFTSDLSKQKDSRRAQDFIEWLKNGGPSSGAPPPS (dSer at 2; K(γE-x53) at 14; C-terminal N(morpholin)) [SEQ ID NO: 102] | 1.1 |
| HXQGTFTSDLSKQKDSRRAQDFIEWLKNGGPSSGAPPPS (dSer at 2; K(γE-x53) at 14; C-terminal NH(CH2-CF3)) [SEQ ID NO: 103] | 1.7 |
| HXQGTFTSDLSKQKDSRRAQDFIEWLKNGGPSSGAPPPS (dSer at 2; K(γE-x53) at 14; C-terminal NH[(CH2-CH2-O)4-CH2-CH2-COOH]) [SEQ ID NO: 104] | 1.1 |
| HXQGTFTSDLSKQKDSRRAQDFIEWLKNGGPSSGAPPPS (dSer at 2; K(γE-x53) at 14; C-terminal NH[(CH2-CH2-O)24-CH2-CH2-COOH]) [SEQ ID NO: 105] | 1 |
| HXQGTFTSDLSKQKDSRRAQDFIEWLKNGGPSSGAPPPS (dSer at 2; K(γE-x53) at 14; C-terminal NH[(CH2)15-CH3]) [SEQ ID NO: 106] | 10.5 |
| HXQGTFTSDLSKQKESXAAXLFIEWLKAGGPSSGAPPPS (dSer at 2; K(γE-x53) at 14; Aib at 17; Aib at 20; C-terminal NH2) [SEQ ID NO: 12] | 263 |
| HXQGTFTSDLSKQKDSRRAQDFIEWLKNGGPSSGAPPPS (dSer at 2; K(γE-x53) at 14; C-terminal NH[(CH2)12-OH]) [SEQ ID NO: 107] | 37.8 |
| HXQGTFTSDLSKQKDSRRAQDFIEWLKNGGPSSGAPPPS (dSer at 2; K(γE-x53) at 14; C-terminal NH[(CH2)14-CH3]) [SEQ ID NO: 108] | 9 |
| HXQGTFTSDLSKQKDSRRAQDFIEWLKNGGPSSGAPPPS (dSer at 2; K(γE-x53) at 14; C-terminal NH[(CH2)17-CH3]) [SEQ ID NO: 109] | 28.6 |
| HXQGTFTSDLSKQKDSRRAQDFIEWLKNGGPSSGAPPPS (dSer at 2; K(γE-x53) at 14; C-terminal NH[(CH2)13-CH3]) [SEQ ID NO: 110] | 7.2 |
| HXQGTFTSDLSKQKESRRAQDFIEWLKNGGPSSGAPPPSK (dSer at 2; K(γE-x53) at 14; C-terminal NH2) [SEQ ID NO: 111] | 2.5 |
| HXQGTFTSDLSKQKESRRAQDFIEWLKNGGPSSGAPPPSK (dSer at 2; K(x53) at 14; C-terminal NH2) [SEQ ID NO: 112] | 21.1 |
| HXQGTFTSDLSKQKESRRAQDFIEWLKNGGPSSGAPPPK (dSer at 2; K(γE-x53) at 14; C-terminal NH2) [SEQ ID NO: 113] | 5.4 |
| HXQGTFTSDLSKQKESRRAQDFIEWLKNGGPSSGAPPPK (dSer at 2; K(x53) at 14; C-terminal NH2) [SEQ ID NO: 114] | 31.1 |
| HXQGTFTSDLSKQKESRRAQDFIEWLKNGGPSSGAPPPS (dSer at 2; K(γE-x53) at 14; C-terminal NH2) [SEQ ID NO: 116] | 3.6 |
| H[Aib]QGTFTSDLSKQK([γGlu-x53])ES[Aib]AAQDFIEWLKAGGPSSGAPPPS-NH2 (reading uncertain) [SEQ ID NO: 13] | 281 |
| H[Aib]QGTFTSDLSKQK([γGlu-x53])ESRRAQDFIEWLKNGGPSSGAPPPS-NH2 (reading uncertain) [SEQ ID NO: 117] | 16.5 |
| HXQGTFTSDLSKQKDSRRAXDFIEWLKNGGPSSGAPPPS (dSer at 2; K(γE-x53) at 14; Aib at 20; C-terminal NH2) [SEQ ID NO: 118] | 4.3 |
| HXQGTFTSDLSKQKESRRAXDFIEWLKNGGPSSGAPPPS (dSer at 2; K(x53) at 14; Aib at 20; C-terminal NH2) [SEQ ID NO: 119] | 41.2 |
| HXQGTFTSDLSKQKESRAAXLFIEWLKNGGPSSGAPPPS (dSer at 2; K(γE-x53) at 14; Aib at 20; C-terminal NH2) [SEQ ID NO: 121] | 23.7 |

From patent US20180185450A1 (Sanofi, published 2018)
